Results reported in the supplement of paper PMC12042874.
± gives the uncertainty stated by the source.

Assay: amyloid nucleation score (Sup35N fusion, yeast selection) (log enrichment); library NNK1; higher = more nucleation; inactive = no reads after selection
Procedure, shortened: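 Using DiMSum, nucleation scores were taken as the log enrichment of output over input reads, centred on the mode score of non-aggregating sequences. The input and output reads came from Illumina sequencing of plasmid inserts, with sequences under 100 input reads excluded. The yeast were psi-negative, expressed Sup35N fused to peptides of 20 random codons, were induced with 100 μM copper sulfate for 24 hours, and were grown 7 days at 30°C on medium lacking adenine and uracil.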

**Q.** Which amyloid nucleation score does the source give for NCWQLYLKHSVPRRIQRGYA here?
**A.** -0.577 ± 0.48

**Q.** Which amyloid nucleation score does the source give for NCYLLFFCRLSSLSYAYQVY here?
**A.** -0.815 ± 1.2

**Q.** For NCYMIFVKRLPLC, which amyloid nucleation score is on record?
**A.** 0.023 ± 0.41

**Q.** With NDWRCSKGLLGFWRGGTRQA as the substance, how does the amyloid nucleation score read?
**A.** 0.48 ± 0.28

**Q.** For NEFTFSYKYGRHSGRSLKRR, which amyloid nucleation score is on record?
**A.** 2.32 ± 0.28

**Q.** For NESDI, which amyloid nucleation score is on record?
**A.** 0.392 ± 0.26

**Q.** Which amyloid nucleation score does the source give for NFAPRYLAI here?
**A.** 0.295 ± 0.34

**Q.** For NFCDSSGI, which amyloid nucleation score is on record?
**A.** -0.912 ± 1.2

**Q.** For NFCEVYGANIN, which amyloid nucleation score is on record?
**A.** inactive

**Q.** For NFLESSFYFFALVSASLSFN, which amyloid nucleation score is on record?
**A.** 0.527 ± 0.25

**Q.** For NFPKYGFQGVFRTPMWYGFF, which amyloid nucleation score is on record?
**A.** -1.63 ± 1.1

**Q.** With NFRLCLWSDAGLIGKAVFGY as the substance, how does the amyloid nucleation score read?
**A.** 0.718 ± 0.39

**Q.** With NFTIDKRNAMLCVGRLYRSF as the substance, how does the amyloid nucleation score read?
**A.** 1.05 ± 0.5

**Q.** Which amyloid nucleation score does the source give for NFTNFW here?
**A.** -0.732 ± 0.56

**Q.** With NFYTFFQTRGFLSLSACALR as the substance, how does the amyloid nucleation score read?
**A.** -1.12 ± 2.7

**Q.** With NGFCEVDIVLFRVEVVAACV as the substance, how does the amyloid nucleation score read?
**A.** -0.965 ± 2.4

**Q.** Which amyloid nucleation score does the source give for NGKSAQ here?
**A.** 4.05 ± 0.064

**Q.** For NGNNQYRPVCDYSYYRRSCS, which amyloid nucleation score is on record?
**A.** -0.234 ± 1.6

**Q.** With NGPLHSYYTVWGCMYCLLML as the substance, how does the amyloid nucleation score read?
**A.** 3.06 ± 0.23

**Q.** For NGRTLINQYESLEATGICTV, which amyloid nucleation score is on record?
**A.** 0.684 ± 0.78

**Q.** For NGTIHMPLVWGYKLDRPRGW, which amyloid nucleation score is on record?
**A.** 0.969 ± 0.7

**Q.** With NGYQCYGILCAFVTWTVYFW as the substance, how does the amyloid nucleation score read?
**A.** 1.26 ± 0.79

**Q.** Which amyloid nucleation score does the source give for NHALYDIWLIALSSRLYCQN here?
**A.** 0.342 ± 0.4

**Q.** For NHGLYTVFWGCCPWFSQNLF, which amyloid nucleation score is on record?
**A.** 7.894 ± 0.073

**Q.** Which amyloid nucleation score does the source give for NHGWVLNSNFYIPRKYSLVR here?
**A.** -1.25 ± 0.48

**Q.** Which amyloid nucleation score does the source give for NIEGRVYRIDSAGGPCIYVL here?
**A.** -0.621 ± 0.5

**Q.** Which amyloid nucleation score does the source give for NIFIFTVSHKPNY here?
**A.** 7.926 ± 0.057

**Q.** For NIGMGSTLFLGRMSEQCWCS, which amyloid nucleation score is on record?
**A.** 2.32 ± 0.14

**Q.** Which amyloid nucleation score does the source give for NIGMRDTGVLLDKLCQV here?
**A.** -0.594 ± 0.65

**Q.** For NILDMCLKRYIFMLE, which amyloid nucleation score is on record?
**A.** 1.44 ± 0.37

**Q.** With NILGIAHTIGCLLLTFCCTL as the substance, how does the amyloid nucleation score read?
**A.** inactive

**Q.** With NIRKEGFFRFSPSTADTTCR as the substance, how does the amyloid nucleation score read?
**A.** 0.618 ± 0.71

**Q.** With NISSQEPISRAATSRKVAGQ as the substance, how does the amyloid nucleation score read?
**A.** 0.466 ± 1.4

**Q.** For NITFEVINQRCD, which amyloid nucleation score is on record?
**A.** 3.38 ± 0.12

**Q.** Which amyloid nucleation score does the source give for NIVDVKPQKRETIRWLWIIF here?
**A.** -0.232 ± 0.2

**Q.** Which amyloid nucleation score does the source give for NKIGRAFVTSYGLRIHSGAG here?
**A.** -0.32 ± 0.76

**Q.** With NKKNSSLNHSL as the substance, how does the amyloid nucleation score read?
**A.** -0.077 ± 0.43

**Q.** With NKQETSKWLWECGDCSRYLY as the substance, how does the amyloid nucleation score read?
**A.** 1.18 ± 0.41

**Q.** Which amyloid nucleation score does the source give for NKSNSLYGSLKWGDRAYSSY here?
**A.** -1.31 ± 0.71

**Q.** Which amyloid nucleation score does the source give for NKWLRCARGTVHWYAAIVGH here?
**A.** -0.942 ± 1.1

**Q.** For NLFSLYGSNFLSP, which amyloid nucleation score is on record?
**A.** 1.97 ± 0.14

**Q.** With NLFTTSSCNLIFSTICFD as the substance, how does the amyloid nucleation score read?
**A.** 7.281 ± 0.067

**Q.** With NLGVKDLNTI as the substance, how does the amyloid nucleation score read?
**A.** -0.905 ± 0.4

**Q.** For NLKVESPGNGSWICTLEWVW, which amyloid nucleation score is on record?
**A.** 6.645 ± 0.054

**Q.** For NLLLIMDFVGWV, which amyloid nucleation score is on record?
**A.** 1.48 ± 0.56

**Q.** Which amyloid nucleation score does the source give for NLLTMDIERTGECIDFWVD here?
**A.** 0.008 ± 0.38

**Q.** For NLMFSNGSNRSGF, which amyloid nucleation score is on record?
**A.** 0.142 ± 0.38

**Q.** Which amyloid nucleation score does the source give for NLNFAAPKGGV here?
**A.** -0.735 ± 2.4

**Q.** For NLSGDDFGVNEKTSRWCQWG, which amyloid nucleation score is on record?
**A.** 0.397 ± 1.2

**Q.** With NLSGRSLSRLIDLFNRFTC as the substance, how does the amyloid nucleation score read?
**A.** 0.919 ± 0.29

**Q.** For NLSLRLFVSLSLIMTVMRVP, which amyloid nucleation score is on record?
**A.** -0.127 ± 0.4

**Q.** Which amyloid nucleation score does the source give for NLYMANGDVMCSREGAEQCS here?
**A.** 1.5 ± 0.14

**Q.** With NMFNDVGDWTFNKGSFTGTV as the substance, how does the amyloid nucleation score read?
**A.** -0.482 ± 0.41

**Q.** With NMLGSFPLTVLRKAWCCGSL as the substance, how does the amyloid nucleation score read?
**A.** 1.04 ± 0.57

**Q.** With NMLSLSRAAWKRN as the substance, how does the amyloid nucleation score read?
**A.** inactive

**Q.** For NMSCCSTPYNPWTSIVPNVM, which amyloid nucleation score is on record?
**A.** 0.103 ± 0.39

**Q.** Which amyloid nucleation score does the source give for NMVSLMVDSELTFVSLICLE here?
**A.** 3.18 ± 0.064

**Q.** For NNHFFMILYINKMVYMILKV, which amyloid nucleation score is on record?
**A.** 0.38 ± 0.52

**Q.** Which amyloid nucleation score does the source give for NNLTVLIWVMPMDRI here?
**A.** 1.99 ± 0.39

**Q.** For NNMRVLLRFLSVVLGSGEVR, which amyloid nucleation score is on record?
**A.** 1.01 ± 0.67

**Q.** For NNMRYTV, which amyloid nucleation score is on record?
**A.** inactive

**Q.** For NNMWSILTAAWDHVCSWRSS, which amyloid nucleation score is on record?
**A.** 1.77 ± 0.5

**Q.** For NNSSHGCRNVRNSQMSFVPQ, which amyloid nucleation score is on record?
**A.** -0.165 ± 0.75

**Q.** With NPEILCRLKIPFSSCLDSAS as the substance, how does the amyloid nucleation score read?
**A.** 0.341 ± 0.61

**Q.** With NPFCFMMRTGRSGSGWVKRR as the substance, how does the amyloid nucleation score read?
**A.** 0.088 ± 0.54

**Q.** For NPFWWVRPL, which amyloid nucleation score is on record?
**A.** 0.284 ± 0.81

**Q.** Which amyloid nucleation score does the source give for NPRPH here?
**A.** -0.601 ± 0.62

**Q.** For NPSQIELRAFRTCMMYCGS, which amyloid nucleation score is on record?
**A.** inactive

**Q.** Which amyloid nucleation score does the source give for NQFMHGTETYFEDINALVWG here?
**A.** 1.43 ± 0.66

**Q.** With NQYSFRGLS as the substance, how does the amyloid nucleation score read?
**A.** inactive

**Q.** For NRALGMRGVIGPSVWYVVP, which amyloid nucleation score is on record?
**A.** 0.534 ± 0.26

**Q.** Which amyloid nucleation score does the source give for NRARPLVSFMILGSVSECYA here?
**A.** 0.767 ± 0.21

**Q.** For NRIKWVKRFSIPFLTWYEDW, which amyloid nucleation score is on record?
**A.** 0.499 ± 0.53

**Q.** For NRNKVR, which amyloid nucleation score is on record?
**A.** -0.2 ± 1.1

**Q.** Which amyloid nucleation score does the source give for NSATRREPSVVGLYWSVR here?
**A.** -2.42 ± 2.7

**Q.** For NSCQNPSEGF, which amyloid nucleation score is on record?
**A.** -0.376 ± 1.2

**Q.** For NSCWRTGLQVPVSQHYNQTI, which amyloid nucleation score is on record?
**A.** -0.492 ± 0.61

**Q.** With NSGESLS as the substance, how does the amyloid nucleation score read?
**A.** -0.186 ± 0.85

**Q.** With NSHDKVGVSILWTGRSRLVA as the substance, how does the amyloid nucleation score read?
**A.** -0.003 ± 0.45

**Q.** Which amyloid nucleation score does the source give for NSMLNDCHDKLIIGFSEGWS here?
**A.** 0.091 ± 0.47

**Q.** Which amyloid nucleation score does the source give for NSPGYDQVNAYVGFKRRTMS here?
**A.** 0.128 ± 0.64

**Q.** With NSPPSDHSLKV as the substance, how does the amyloid nucleation score read?
**A.** -0.195 ± 1.4

**Q.** With NSRNVCFWYVNCCLVHGILG as the substance, how does the amyloid nucleation score read?
**A.** 7.543 ± 0.067

**Q.** For NSSCIIPMLWWGHNHHWC, which amyloid nucleation score is on record?
**A.** 3.43 ± 0.12

**Q.** With NSSHLLVMCDICYNFKVRTL as the substance, how does the amyloid nucleation score read?
**A.** -1.69 ± 1.5

**Q.** For NSWDISRSMNVLGNRVNRFP, which amyloid nucleation score is on record?
**A.** -0.765 ± 0.37
